This is an account of results in publication PMC2614274.

The target in this series is T1, DNA polymerase III alpha subunit (PolIIIα), exonuclease-deficient (Thermus aquaticus, UniProt Q9XDH5 1-1220, D20N;D212N).
T1 sequence: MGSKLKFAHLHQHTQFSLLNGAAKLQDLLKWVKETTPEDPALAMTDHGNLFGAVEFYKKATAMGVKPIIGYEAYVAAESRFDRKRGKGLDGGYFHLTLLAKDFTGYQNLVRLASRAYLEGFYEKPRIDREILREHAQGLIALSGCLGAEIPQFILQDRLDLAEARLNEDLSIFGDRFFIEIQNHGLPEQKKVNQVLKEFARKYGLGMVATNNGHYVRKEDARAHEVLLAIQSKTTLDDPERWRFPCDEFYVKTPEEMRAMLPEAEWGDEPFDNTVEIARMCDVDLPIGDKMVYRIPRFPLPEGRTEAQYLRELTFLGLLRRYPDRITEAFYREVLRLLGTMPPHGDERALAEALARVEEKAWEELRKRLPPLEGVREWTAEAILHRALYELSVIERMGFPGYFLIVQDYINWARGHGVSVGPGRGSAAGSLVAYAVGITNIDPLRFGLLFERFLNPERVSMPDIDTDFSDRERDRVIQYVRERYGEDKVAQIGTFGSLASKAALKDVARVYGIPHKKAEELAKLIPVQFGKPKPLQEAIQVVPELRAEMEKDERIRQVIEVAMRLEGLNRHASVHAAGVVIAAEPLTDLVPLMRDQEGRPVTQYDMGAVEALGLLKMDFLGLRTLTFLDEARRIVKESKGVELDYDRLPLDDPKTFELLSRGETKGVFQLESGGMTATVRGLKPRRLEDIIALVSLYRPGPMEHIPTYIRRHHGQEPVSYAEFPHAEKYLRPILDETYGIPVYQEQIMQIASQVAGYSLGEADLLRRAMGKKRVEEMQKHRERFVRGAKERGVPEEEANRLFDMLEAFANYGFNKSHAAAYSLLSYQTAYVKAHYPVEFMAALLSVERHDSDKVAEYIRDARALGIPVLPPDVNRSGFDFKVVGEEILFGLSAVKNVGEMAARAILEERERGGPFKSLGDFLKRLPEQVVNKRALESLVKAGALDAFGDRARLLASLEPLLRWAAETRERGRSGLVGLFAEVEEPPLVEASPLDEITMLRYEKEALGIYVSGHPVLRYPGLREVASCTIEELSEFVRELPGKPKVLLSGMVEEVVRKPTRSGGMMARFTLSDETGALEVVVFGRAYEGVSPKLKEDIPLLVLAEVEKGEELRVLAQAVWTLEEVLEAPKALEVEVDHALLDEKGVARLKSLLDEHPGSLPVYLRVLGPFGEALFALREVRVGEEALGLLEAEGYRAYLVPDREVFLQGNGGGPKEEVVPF
The series is described as follows: X-ray crystallography.

B1: primer-template DNA, ddC-terminated primer (dsDNA)
DNA 1: CGAAACGACGGCCAGTGCCAC
DNA 2: TTTTTTGTGGCACTGGCCGTCGTTTCG
modifications: 2',3'-dideoxycytidine at primer 3' end (incorporated in situ by the polymerase)
Consider B1, for which the binding result is “binds”.
